{"source": "patent US20080249004A1", "molecular_target": "NCAM Ig1-2-3 fragment (recombinant rat NCAM residues 1-289, deglycosylated) (rat)", "test": "dynamic light scattering, 4 mg/ml in PBS pH 7.4, 18 C; self-association", "data": [{"substance": "NCAM Ig1-2-3 fragment (recombinant rat NCAM residues 1-289, deglycosylated) (from UniProt P13595 20-308)", "values": [{"measurement": "molecular weight in solution (DLS)", "result": 78, "unit": "kDa"}]}]}
